{"source": "paper PMC9338584", "about": "(2022)", "binders": {"B1": {"name": "recombinant Lr-PGRN-S1 (Lethenteron reissneri short-form progranulin S1) (natural protein)", "chain": "MGAVFSLGLSKEAIAMALPRPLMFVLVAAGLCALVSADRCPDGRFCVSRCCWKFTQYTCCWAGEGEGQGETQGELATVPAQAISATVSKVSSCAGSVCSANGESRCCPLSEGSCCGDGLSCCGKGSTCTTFRGLNLCLPHAEFQDPVATFLSREQQQHQQGGCVDDSGCPAGSECHVASGDHRGQCVSSDALIPWVEKEAALSGAVGAQVVYCGSGQYCRDGQTCCRLATGSWGCCNIPHAICCSDGIHCCPTGHFCLTASGLCARSTLSLPAVEGV"}}, "target": "recombinant lamprey tumor necrosis factor receptor (rL-TNFR) (lamprey)", "test": "SPR", "data": [{"binder": "B1", "values": [{"measurement": "Kd", "value": 337, "unit": "nM"}]}]}
